Non-standard residues stand in square brackets, D forms with d. Arg(Me) = CNC(=N)NCCC[C@H](N)C(=O)O; Dap(CONH2) = NC(=O)NC[C@H](N)C(=O)O; Lys(Me2) = CN(C)CCCC[C@H](N)C(=O)O; 4Pal = N[C@@H](Cc1ccncc1)C(=O)O; Cha = N[C@@H](CC1CCCCC1)C(=O)O; Cit = NC(=O)NCCC[C@H](N)C(=O)O; dIva = CC[C@@](C)(N)C(=O)O; Iva = CC[C@](C)(N)C(=O)O; Dab = NCC[C@H](N)C(=O)O; Aib = CC(C)(N)C(=O)O
Key:
[1] = target: T1, human Y2 receptor (Homo sapiens, UniProt P49146); experiment: Receptor Binding Assay (RBA) for Human Y2, [125I]-PYY displacement on hY2R/CHO membrane fraction; settings: IC50 of test compound/IC50 of PYY(3-36) (PYY(3-36) taken as 1)
T1 construct: expressed in transfected cells; membrane fraction
T1 sequence (P49146 1-381): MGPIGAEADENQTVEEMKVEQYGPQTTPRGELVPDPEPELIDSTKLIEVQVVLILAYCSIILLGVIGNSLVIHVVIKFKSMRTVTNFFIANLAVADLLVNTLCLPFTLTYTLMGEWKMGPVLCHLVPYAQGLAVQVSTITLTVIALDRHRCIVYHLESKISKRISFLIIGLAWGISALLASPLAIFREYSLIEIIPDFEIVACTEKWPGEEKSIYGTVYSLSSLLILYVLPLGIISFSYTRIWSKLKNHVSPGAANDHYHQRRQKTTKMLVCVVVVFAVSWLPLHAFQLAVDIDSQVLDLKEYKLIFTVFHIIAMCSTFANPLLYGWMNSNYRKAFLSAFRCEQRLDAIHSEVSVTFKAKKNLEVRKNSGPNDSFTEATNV
Outline: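 Read-out is [125I]-PYY displacement from membranes of CHO/dhfr− cells stably transfected with human Y2R. Membranes were obtained by disrupting cells in a buffer of 10 mM NaHCO3, 5 mM EDTA and protease inhibitors.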

[2] = target: T1, human Y2 receptor; experiment: Human Y2 Receptor G Protein Binding Assay (GBA), [35S]GTPγS; type: biochemical; settings: EC50 of test compound/EC50 of PYY(3-36) (PYY3-36 taken as 1), hY2R/CHO membrane fraction
Outline: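 Agonism measured as [35S]GTPγS binding, read by GF/C filtration and scintillation counting after 120 min at room temperature, using human Y2 membranes at 1 μg protein/mL in pH 7.4 Tris/MgCl2/NaCl/GDP buffer. Compound serially diluted 100 μM–1 nM; EC50 normalized to PYY(3-36) (ratio = compound/PYY).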

| RBA IC50 Ratio [1] | GBA EC50 Ratio [2] | Substance |
| --- | --- | --- |
| 8.4 | 1.7 | Ac-[D-Pro24, Aib25,28,31, Pya(4)26, Cha27,36, Lys30]-PYY(23-36) (Ac-S[dP][Aib][4Pal][Cha][Aib]NK[Aib]TRQR[Cha]-NH2; SMILES CC(=O)N[C@@H](CO)C(=O)N1CCC[C@@H]1C(=O)NC(C)(C)C(=O)N[C@@H](Cc1ccncc1)C(=O)N[C@@H](CC1CCCCC1)C(=O)NC(C)(C)C(=O)N[C@@H](CC(N)=O)C(=O)N[C@@H](CCCCN)C(=O)NC(C)(C)C(=O)N[C@H](C(=O)N[C@@H](CCCNC(=N)N)C(=O)N[C@@H](CCC(N)=O)C(=O)N[C@@H](CCCNC(=N)N)C(=O)N[C@@H](CC1CCCCC1)C(N)=O)[C@@H](C)O) [compound No. 236] |
| 2.1 | 2.7 | Ac-[D-Pro24, Aib26,28,31, Cha27,36, Lys30]-PYY(23-36) (Ac-S[dP]R[Aib][Cha][Aib]NK[Aib]TRQR[Cha]-NH2; SMILES CC(=O)N[C@@H](CO)C(=O)N1CCC[C@@H]1C(=O)N[C@@H](CCCNC(=N)N)C(=O)NC(C)(C)C(=O)N[C@@H](CC1CCCCC1)C(=O)NC(C)(C)C(=O)N[C@@H](CC(N)=O)C(=O)N[C@@H](CCCCN)C(=O)NC(C)(C)C(=O)N[C@H](C(=O)N[C@@H](CCCNC(=N)N)C(=O)N[C@@H](CCC(N)=O)C(=O)N[C@@H](CCCNC(=N)N)C(=O)N[C@@H](CC1CCCCC1)C(N)=O)[C@@H](C)O) [compound No. 235] |
| 18 | 14 | Ac-[D-Pro24, Ala(4Pip)25, Pya(4)26, Cha27,36, Aib28,31, Lys30]-PYY(23-36) [compound No. 311] (Ac-S[dP][Ala(4Pip)][4Pal][Cha][Aib]NK[Aib]TRQR[Cha]-NH2; also: Ala(4Pip) configuration not fixed (D or L), former peak) |
| 12 | 2.2 | Ac-[D-Pro24, Alb26, Cha27,28,36, Aib31]-PYY(23-36) (Ac-S[dP]R[Dap(CONH2)][Cha][Cha]NL[Aib]TRQR[Cha]-NH2; SMILES CC(=O)N[C@@H](CO)C(=O)N1CCC[C@@H]1C(=O)N[C@@H](CCCNC(=N)N)C(=O)N[C@@H](CNC(N)=O)C(=O)N[C@@H](CC1CCCCC1)C(=O)N[C@@H](CC1CCCCC1)C(=O)N[C@@H](CC(N)=O)C(=O)N[C@@H](CC(C)C)C(=O)NC(C)(C)C(=O)N[C@H](C(=O)N[C@@H](CCCNC(=N)N)C(=O)N[C@@H](CCC(N)=O)C(=O)N[C@@H](CCCNC(=N)N)C(=O)N[C@@H](CC1CCCCC1)C(N)=O)[C@@H](C)O) [compound No. 149] |
| 1.8 | 1.8 | Ac-[D-Pro24, Arg(Me)25, Cha27,36, Aib28,31, Lys30]-PYY(23-36) (Ac-S[dP][Arg(Me)]H[Cha][Aib]NK[Aib]TRQR[Cha]-NH2; SMILES CNC(=N)NCCC[C@H](NC(=O)[C@H]1CCCN1C(=O)[C@H](CO)NC(C)=O)C(=O)N[C@@H](Cc1c[nH]cn1)C(=O)N[C@@H](CC1CCCCC1)C(=O)NC(C)(C)C(=O)N[C@@H](CC(N)=O)C(=O)N[C@@H](CCCCN)C(=O)NC(C)(C)C(=O)N[C@H](C(=O)N[C@@H](CCCNC(=N)N)C(=O)N[C@@H](CCC(N)=O)C(=O)N[C@@H](CCCNC(=N)N)C(=O)N[C@@H](CC1CCCCC1)C(N)=O)[C@@H](C)O) [compound No. 281] |
| 71 | 37 | Ac-[D-Pro24, Cha27,28,36, D-Iva29, Aib31]-PYY(23-36) (Ac-S[dP]RH[Cha][Cha][dIva]L[Aib]TRQR[Cha]-NH2; SMILES CC[C@@](C)(NC(=O)[C@H](CC1CCCCC1)NC(=O)[C@H](CC1CCCCC1)NC(=O)[C@H](Cc1c[nH]cn1)NC(=O)[C@H](CCCNC(=N)N)NC(=O)[C@H]1CCCN1C(=O)[C@H](CO)NC(C)=O)C(=O)N[C@@H](CC(C)C)C(=O)NC(C)(C)C(=O)N[C@H](C(=O)N[C@@H](CCCNC(=N)N)C(=O)N[C@@H](CCC(N)=O)C(=O)N[C@@H](CCCNC(=N)N)C(=O)N[C@@H](CC1CCCCC1)C(N)=O)[C@@H](C)O) [compound No. 179] |
| 2.6 | 1.6 | Ac-[D-Pro24, Cha27,28,36, Dab30, Aib31]-PYY(23-36) (Ac-S[dP]RH[Cha][Cha]N[Dab][Aib]TRQR[Cha]-NH2; SMILES CC(=O)N[C@@H](CO)C(=O)N1CCC[C@@H]1C(=O)N[C@@H](CCCNC(=N)N)C(=O)N[C@@H](Cc1c[nH]cn1)C(=O)N[C@@H](CC1CCCCC1)C(=O)N[C@@H](CC1CCCCC1)C(=O)N[C@@H](CC(N)=O)C(=O)N[C@@H](CCN)C(=O)NC(C)(C)C(=O)N[C@H](C(=O)N[C@@H](CCCNC(=N)N)C(=O)N[C@@H](CCC(N)=O)C(=O)N[C@@H](CCCNC(=N)N)C(=O)N[C@@H](CC1CCCCC1)C(N)=O)[C@@H](C)O) [compound No. 165] |
| 43 | 20 | Ac-[D-Pro24, Cha27,28,36, Iva30, Aib31]-PYY(23-36) (Ac-S[dP]RH[Cha][Cha]N[Iva][Aib]TRQR[Cha]-NH2; SMILES CC[C@](C)(NC(=O)[C@H](CC(N)=O)NC(=O)[C@H](CC1CCCCC1)NC(=O)[C@H](CC1CCCCC1)NC(=O)[C@H](Cc1c[nH]cn1)NC(=O)[C@H](CCCNC(=N)N)NC(=O)[C@H]1CCCN1C(=O)[C@H](CO)NC(C)=O)C(=O)NC(C)(C)C(=O)N[C@H](C(=O)N[C@@H](CCCNC(=N)N)C(=O)N[C@@H](CCC(N)=O)C(=O)N[C@@H](CCCNC(=N)N)C(=O)N[C@@H](CC1CCCCC1)C(N)=O)[C@@H](C)O) [compound No. 202] |
| 0.8 | 0.7 | Ac-[D-Pro24, Cha27,28,36, Lys(Me2)30, Aib31]-PYY(23-36) (Ac-S[dP]RH[Cha][Cha]N[Lys(Me2)][Aib]TRQR[Cha]-NH2; SMILES CC(=O)N[C@@H](CO)C(=O)N1CCC[C@@H]1C(=O)N[C@@H](CCCNC(=N)N)C(=O)N[C@@H](Cc1c[nH]cn1)C(=O)N[C@@H](CC1CCCCC1)C(=O)N[C@@H](CC1CCCCC1)C(=O)N[C@@H](CC(N)=O)C(=O)N[C@@H](CCCCN(C)C)C(=O)NC(C)(C)C(=O)N[C@H](C(=O)N[C@@H](CCCNC(=N)N)C(=O)N[C@@H](CCC(N)=O)C(=O)N[C@@H](CCCNC(=N)N)C(=O)N[C@@H](CC1CCCCC1)C(N)=O)[C@@H](C)O) [compound No. 166] |
| 6.2 | 4.6 | Ac-[D-Pro24, Cit25, Cha27,36, Aib28,31, Lys30]-PYY(23-36) (Ac-S[dP][Cit]H[Cha][Aib]NK[Aib]TRQR[Cha]-NH2; SMILES CC(=O)N[C@@H](CO)C(=O)N1CCC[C@@H]1C(=O)N[C@@H](CCCNC(N)=O)C(=O)N[C@@H](Cc1c[nH]cn1)C(=O)N[C@@H](CC1CCCCC1)C(=O)NC(C)(C)C(=O)N[C@@H](CC(N)=O)C(=O)N[C@@H](CCCCN)C(=O)NC(C)(C)C(=O)N[C@H](C(=O)N[C@@H](CCCNC(=N)N)C(=O)N[C@@H](CCC(N)=O)C(=O)N[C@@H](CCCNC(=N)N)C(=O)N[C@@H](CC1CCCCC1)C(N)=O)[C@@H](C)O) [compound No. 226] |
| 2.8 | 2.2 | Ac-[D-Pro24, Cit25, Pya(4)26, Cha27,36, Aib28,31, Lys30]-PYY(23-36) [compound No. 225] |
| 5.5 | 1.7 | Ac-[D-Pro24, Cit26, Cha27,28,36, Aib31]-PYY(23-36) (Ac-S[dP]R[Cit][Cha][Cha]NL[Aib]TRQR[Cha]-NH2; SMILES CC(=O)N[C@@H](CO)C(=O)N1CCC[C@@H]1C(=O)N[C@@H](CCCNC(=N)N)C(=O)N[C@@H](CCCNC(N)=O)C(=O)N[C@@H](CC1CCCCC1)C(=O)N[C@@H](CC1CCCCC1)C(=O)N[C@@H](CC(N)=O)C(=O)N[C@@H](CC(C)C)C(=O)NC(C)(C)C(=O)N[C@H](C(=O)N[C@@H](CCCNC(=N)N)C(=O)N[C@@H](CCC(N)=O)C(=O)N[C@@H](CCCNC(=N)N)C(=O)N[C@@H](CC1CCCCC1)C(N)=O)[C@@H](C)O) [compound No. 152] |
| 14 | 11 | Ac-[D-Pro24, D-Iva25, Cha27,28,36, Aib31]-PYY(23-36) (Ac-S[dP][dIva]H[Cha][Cha]NL[Aib]TRQR[Cha]-NH2; SMILES CC[C@@](C)(NC(=O)[C@H]1CCCN1C(=O)[C@H](CO)NC(C)=O)C(=O)N[C@@H](Cc1c[nH]cn1)C(=O)N[C@@H](CC1CCCCC1)C(=O)N[C@@H](CC1CCCCC1)C(=O)N[C@@H](CC(N)=O)C(=O)N[C@@H](CC(C)C)C(=O)NC(C)(C)C(=O)N[C@H](C(=O)N[C@@H](CCCNC(=N)N)C(=O)N[C@@H](CCC(N)=O)C(=O)N[C@@H](CCCNC(=N)N)C(=O)N[C@@H](CC1CCCCC1)C(N)=O)[C@@H](C)O) [compound No. 182] |
| 19 | 13 | Ac-[D-Pro24, D-Iva26, Cha27,28,36, Aib31]-PYY(23-36) (Ac-S[dP]R[dIva][Cha][Cha]NL[Aib]TRQR[Cha]-NH2; SMILES CC[C@@](C)(NC(=O)[C@H](CCCNC(=N)N)NC(=O)[C@H]1CCCN1C(=O)[C@H](CO)NC(C)=O)C(=O)N[C@@H](CC1CCCCC1)C(=O)N[C@@H](CC1CCCCC1)C(=O)N[C@@H](CC(N)=O)C(=O)N[C@@H](CC(C)C)C(=O)NC(C)(C)C(=O)N[C@H](C(=O)N[C@@H](CCCNC(=N)N)C(=O)N[C@@H](CCC(N)=O)C(=O)N[C@@H](CCCNC(=N)N)C(=O)N[C@@H](CC1CCCCC1)C(N)=O)[C@@H](C)O) [compound No. 181] |
